Measured values published in US20190177366A1 (published 2019).
Bridge positions count the residues as written; N and C are the ends. Ends that are not written are not given here.

What was measured:
[1] = target: T1, proprotein convertase subtilisin/kexin type 9 (PCSK9) (human, UniProt Q8NBP7 31-152); test: phage spot ELISA
T1 construct: domain: prodomain; Recombinant; tag not written as a part; also called rec.PCSK9; His-PCSK9

[2] = target: T2, His-tagged, full-length PCSK9 (human, UniProt A8T644 31-152; Q8NBP7 153-692); test: TR-FRET competition; competitor EGF(A)-Fc on His-PCSK9
T2 construct: Target protein of the PCSK9/EGF(A) TR-FRET assay (10 nM); also called His-PCSK9; proprotein convertase subtilisin/kexin type 9
T2 sequence (A8T644 31-152 limits assumed, chain 1 of 2): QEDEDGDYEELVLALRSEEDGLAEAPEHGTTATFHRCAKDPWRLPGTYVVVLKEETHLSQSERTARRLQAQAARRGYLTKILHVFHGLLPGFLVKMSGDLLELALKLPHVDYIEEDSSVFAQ
T2 sequence (A8T644 other isoform, or with tags, fused parts or gaps limits assumed, chain 2 of 2): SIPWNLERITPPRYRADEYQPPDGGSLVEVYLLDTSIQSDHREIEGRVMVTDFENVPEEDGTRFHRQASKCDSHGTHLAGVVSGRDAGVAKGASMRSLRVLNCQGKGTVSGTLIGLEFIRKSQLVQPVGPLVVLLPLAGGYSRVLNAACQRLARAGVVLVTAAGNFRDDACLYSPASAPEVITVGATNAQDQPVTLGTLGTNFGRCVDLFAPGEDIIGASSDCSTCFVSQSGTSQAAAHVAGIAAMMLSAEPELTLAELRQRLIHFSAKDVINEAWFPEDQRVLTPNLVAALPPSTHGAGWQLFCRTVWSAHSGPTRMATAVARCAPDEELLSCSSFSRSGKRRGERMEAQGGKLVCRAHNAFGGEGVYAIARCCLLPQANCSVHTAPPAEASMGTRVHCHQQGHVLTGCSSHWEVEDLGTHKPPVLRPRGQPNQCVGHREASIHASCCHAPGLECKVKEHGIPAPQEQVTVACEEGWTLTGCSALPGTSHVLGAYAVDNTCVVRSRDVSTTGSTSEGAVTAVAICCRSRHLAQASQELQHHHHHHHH

T1 sequence (Q8NBP7 31-152 limits assumed, chain 1 of 2): as the sequence (A8T644 31-152 limits assumed, chain 1 of 2) above
T1 sequence (Q8NBP7 153-692 limits assumed, chain 2 of 2): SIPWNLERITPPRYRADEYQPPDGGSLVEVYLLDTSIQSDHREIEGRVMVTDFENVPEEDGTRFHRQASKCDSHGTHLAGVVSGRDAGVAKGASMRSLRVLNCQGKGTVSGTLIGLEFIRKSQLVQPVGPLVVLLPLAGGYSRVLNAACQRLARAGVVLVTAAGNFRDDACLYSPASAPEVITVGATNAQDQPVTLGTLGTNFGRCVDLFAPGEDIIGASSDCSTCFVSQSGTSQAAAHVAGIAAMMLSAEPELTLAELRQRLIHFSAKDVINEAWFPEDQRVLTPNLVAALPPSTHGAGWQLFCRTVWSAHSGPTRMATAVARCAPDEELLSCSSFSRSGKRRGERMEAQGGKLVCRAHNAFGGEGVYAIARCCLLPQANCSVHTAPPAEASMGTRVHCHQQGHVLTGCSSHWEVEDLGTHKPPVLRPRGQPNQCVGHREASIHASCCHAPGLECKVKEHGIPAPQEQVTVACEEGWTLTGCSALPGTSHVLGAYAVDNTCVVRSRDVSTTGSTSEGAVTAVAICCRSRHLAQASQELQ

Row | Binder | binding result [1] | IC50 [2]
1 | SGACVKPCIAGNIIR (not fully specified (bridges); cysteine pairing not given here) [SEQ ID NO 388] | binds | –
2 | Ac-SGCFIPWNLQRIGLLC-NH2 (disulfide 3-16 (inferred)) [Compound 29] | – | > 50 µM
3 | SGCFIPWNLQRIGLLC [SEQ ID NO 383] | binds | –
4 | Ac-CRLPWNLQRIGLPC-NH2 (disulfide 1-14 (inferred)) [Compound 32] | – | > 50 µM
5 | Ac-CRLPWNLQAIGLPC-NH2 (disulfide 1-14; SMILES CC[C@H](C)[C@@H]1NC(=O)[C@H](C)NC(=O)[C@H](CCC(N)=O)NC(=O)[C@H](CC(C)C)NC(=O)[C@H](CC(N)=O)NC(=O)[C@H](Cc2c[nH]c3ccccc23)NC(=O)[C@@H]2CCCN2C(=O)[C@H](CC(C)C)NC(=O)[C@H](CCCNC(=N)N)NC(=O)[C@@H](NC(C)=O)CSSC[C@@H](C(N)=O)NC(=O)[C@@H]2CCCN2C(=O)[C@H](CC(C)C)NC(=O)CNC1=O) [Compound 72] | – | > 50 µM
6 | Ac-CRLPWNAQRIGLPC-NH2 (disulfide 1-14; SMILES CC[C@H](C)[C@@H]1NC(=O)[C@H](CCCNC(=N)N)NC(=O)[C@H](CCC(N)=O)NC(=O)[C@H](C)NC(=O)[C@H](CC(N)=O)NC(=O)[C@H](Cc2c[nH]c3ccccc23)NC(=O)[C@@H]2CCCN2C(=O)[C@H](CC(C)C)NC(=O)[C@H](CCCNC(=N)N)NC(=O)[C@@H](NC(C)=O)CSSC[C@@H](C(N)=O)NC(=O)[C@@H]2CCCN2C(=O)[C@H](CC(C)C)NC(=O)CNC1=O) [Compound 74] | – | > 50 µM
7 | Ac-CRLPWNLQRIGAPC-NH2 (disulfide 1-14; SMILES CC[C@H](C)[C@@H]1NC(=O)[C@H](CCCNC(=N)N)NC(=O)[C@H](CCC(N)=O)NC(=O)[C@H](CC(C)C)NC(=O)[C@H](CC(N)=O)NC(=O)[C@H](Cc2c[nH]c3ccccc23)NC(=O)[C@@H]2CCCN2C(=O)[C@H](CC(C)C)NC(=O)[C@H](CCCNC(=N)N)NC(=O)[C@@H](NC(C)=O)CSSC[C@@H](C(N)=O)NC(=O)[C@@H]2CCCN2C(=O)[C@H](C)NC(=O)CNC1=O) [Compound 69] | – | > 50 µM
8 | Ac-CRLPWNLARIGLPC-NH2 (disulfide 1-14; SMILES CC[C@H](C)[C@@H]1NC(=O)[C@H](CCCNC(=N)N)NC(=O)[C@H](C)NC(=O)[C@H](CC(C)C)NC(=O)[C@H](CC(N)=O)NC(=O)[C@H](Cc2c[nH]c3ccccc23)NC(=O)[C@@H]2CCCN2C(=O)[C@H](CC(C)C)NC(=O)[C@H](CCCNC(=N)N)NC(=O)[C@@H](NC(C)=O)CSSC[C@@H](C(N)=O)NC(=O)[C@@H]2CCCN2C(=O)[C@H](CC(C)C)NC(=O)CNC1=O) [Compound 73] | – | > 50 µM
9 | Ac-CRLPWNLKRIGLPC-NH2 (disulfide 1-14; SMILES CC[C@H](C)[C@@H]1NC(=O)[C@H](CCCNC(=N)N)NC(=O)[C@H](CCCCN)NC(=O)[C@H](CC(C)C)NC(=O)[C@H](CC(N)=O)NC(=O)[C@H](Cc2c[nH]c3ccccc23)NC(=O)[C@@H]2CCCN2C(=O)[C@H](CC(C)C)NC(=O)[C@H](CCCNC(=N)N)NC(=O)[C@@H](NC(C)=O)CSSC[C@@H](C(N)=O)NC(=O)[C@@H]2CCCN2C(=O)[C@H](CC(C)C)NC(=O)CNC1=O) [Compound 67] | – | > 50 µM
10 | Ac-CRLPWNLQRIALPC-NH2 (disulfide 1-14; SMILES CC[C@H](C)[C@@H]1NC(=O)[C@H](CCCNC(=N)N)NC(=O)[C@H](CCC(N)=O)NC(=O)[C@H](CC(C)C)NC(=O)[C@H](CC(N)=O)NC(=O)[C@H](Cc2c[nH]c3ccccc23)NC(=O)[C@@H]2CCCN2C(=O)[C@H](CC(C)C)NC(=O)[C@H](CCCNC(=N)N)NC(=O)[C@@H](NC(C)=O)CSSC[C@@H](C(N)=O)NC(=O)[C@@H]2CCCN2C(=O)[C@H](CC(C)C)NC(=O)[C@H](C)NC1=O) [Compound 70] | – | > 50 µM
11 | Ac-CRLPWNLQRIGLAC-NH2 (disulfide 1-14; SMILES CC[C@H](C)[C@@H]1NC(=O)[C@H](CCCNC(=N)N)NC(=O)[C@H](CCC(N)=O)NC(=O)[C@H](CC(C)C)NC(=O)[C@H](CC(N)=O)NC(=O)[C@H](Cc2c[nH]c3ccccc23)NC(=O)[C@@H]2CCCN2C(=O)[C@H](CC(C)C)NC(=O)[C@H](CCCNC(=N)N)NC(=O)[C@@H](NC(C)=O)CSSC[C@@H](C(N)=O)NC(=O)[C@H](C)NC(=O)[C@H](CC(C)C)NC(=O)CNC1=O) [Compound 68] | – | > 50 µM
12 | Ac-CRLPWNLQRAGLPC-NH2 (disulfide 1-14; SMILES CC(=O)N[C@H]1CSSC[C@@H](C(N)=O)NC(=O)[C@@H]2CCCN2C(=O)[C@H](CC(C)C)NC(=O)CNC(=O)[C@H](C)NC(=O)[C@H](CCCNC(=N)N)NC(=O)[C@H](CCC(N)=O)NC(=O)[C@H](CC(C)C)NC(=O)[C@H](CC(N)=O)NC(=O)[C@H](Cc2c[nH]c3ccccc23)NC(=O)[C@@H]2CCCN2C(=O)[C@H](CC(C)C)NC(=O)[C@H](CCCNC(=N)N)NC1=O) [Compound 71] | – | > 50 µM
13 | SGRCLNHLISGNMNSC (not fully specified (bridges); cysteine pairing not given here) [SEQ ID NO 387] | binds | –
14 | SGCRLPWNLQRIGLPC [SEQ ID NO 386] | binds | –
15 | SGGSMPWNLERIFALH [SEQ ID NO 390] | binds | –
16 | SGNCWSSLRGICENLG (not fully specified (bridges); cysteine pairing not given here, phage clone without anchor) [SEQ ID NO 367] | binds | –
17 | SGNALWNHDRLT (phage clone without anchor) [SEQ ID NO 379] | binds | –
18 | SGDTRSQLSH (phage clone without anchor) [SEQ ID NO 376] | binds | –

Row | Binder | binding result [1] | IC50 [2]
19 | SGCSDLWNLARIYPMC (not fully specified (bridges); cysteine pairing not given here) [SEQ ID NO 391] | binds | –
20 | Ac-SGCRLPWNLQRIGLPC-NH2 (disulfide 3-16 (inferred)) [Compound 30] | – | > 50 µM
21 | SGGACPWNLERIGLSC [SEQ ID NO 384] | binds | –
22 | SGGSIPWNLERITPPR (phage clone without anchor) [SEQ ID NO 382] | binds | –
23 | SGCWTYLRGGCSVT (not fully specified (bridges); cysteine pairing not given here, phage clone without anchor) [SEQ ID NO 373] | binds | –
24 | SGSYRGAWSVFGGSTD (phage clone without anchor) [SEQ ID NO 372] | binds | –
25 | SGEHQFYSYRGVDVYR (phage clone without anchor) [SEQ ID NO 370] | binds | –
26 | SGDFIPWNLVRIGLLR [SEQ ID NO 385] | binds | –
27 | SGTPEMPAML (phage clone without anchor) [SEQ ID NO 374] | binds | –
28 | SGAGKLDLSG (phage clone without anchor) [SEQ ID NO 377] | binds | –
29 | SGMVYVDRGVRVFT (phage clone without anchor) [SEQ ID NO 368] | binds | –
30 | Ac-CFIPWNLQRIGLLC-NH2 (disulfide 1-14 (inferred)) [Compound 31] | – | > 50 µM
31 | SGLAPTVSDS (phage clone without anchor) [SEQ ID NO 375] | binds | –
32 | SGHASKGMVLSG (phage clone without anchor) [SEQ ID NO 381] | binds | –
33 | SGRNGSGYINRGIEIW (phage clone without anchor) [SEQ ID NO 380] | binds | –
34 | SGVCSDHYIGGKEVRC (not fully specified (bridges); cysteine pairing not given here, phage clone without anchor) [SEQ ID NO 378] | binds | –
35 | SGACLNHFVSGNMIRC (not fully specified (bridges); cysteine pairing not given here, phage clone without anchor) [SEQ ID NO 371] | binds | –
36 | SGGCVKYRGSVSCQESKT (not fully specified (bridges); cysteine pairing not given here, phage clone without anchor) [SEQ ID NO 369] | binds | –
